Results from the RNAGym collection of RNA variant scans (doi:10.7554/elife.80360).

B1: CPEB3 Ribozyme (parent)
chain: GGGGGCCACAGCAGAAGCGUUCACGUCGCGGCCCCUGUCAGAUUCUGGUGAAUCUGCGAAUUCUGCUGU

Variants of: B1
Experiment: self-cleavage, relative activity (ratio to wild type); higher = more cleavage; co-transcriptional

Row | Variant | self-cleavage
1 | GGGGGUCACAGCAGAAGCGUUCACGUCGCGGCCCCUGUCAGAUUCUGGUCAAUCUGCGAAUUCUGCUGU [C6U G50C] | 1.02
2 | GGGGGUCACAGCAGAAGCGUUCACGUCGCGGCCCCUGUCAGAUUCUGGUUAAUCUGCGAAUUCUGCUGU [C6U G50U] | 0.979
3 | GGGGGUCACGGCAGAAGCGUUCACGUCGCGGCCCCUGUCAGAUUCUGGUGAAUCUGCGAAUUCUGCUGU [C6U A10G] | 0.908
4 | GGGGGUCACAGCAGAAGCGUUCACGUCGCGGCCCCUGUCAGGUUCUGGUGAAUCUGCGAAUUCUGCUGU [C6U A42G] | 0.951
5 | GGGGGGCACAGCAGAAGCGCUCACGUCGCGGCCCCUGUCAGAUUCUGGUGAAUCUGCGAAUUCUGCUGU [C6G U20C] | 0.0949
6 | GGGGGGCACAGCAGAAGCGGUCACGUCGCGGCCCCUGUCAGAUUCUGGUGAAUCUGCGAAUUCUGCUGU [C6G U20G] | 0.0342
7 | GGGGGUCACAGCAGAAGCGUUCAGGUCGCGGCCCCUGUCAGAUUCUGGUGAAUCUGCGAAUUCUGCUGU [C6U C24G] | 0.345
8 | GGGGGUCACAGCAGAAGCGUUCACGUCGCGGCCCGUGUCAGAUUCUGGUGAAUCUGCGAAUUCUGCUGU [C6U C35G] | 0.2
9 | GGGGGUCACAGCAGAAGCGUUCACGUCGCGGCCCUUGUCAGAUUCUGGUGAAUCUGCGAAUUCUGCUGU [C6U C35U] | 0.78
10 | GGGGGUCACAGCAGAAGUGUUCACGUCGCGGCCCCUGUCAGAUUCUGGUGAAUCUGCGAAUUCUGCUGU [C6U C18U] | 0.727
11 | GGGGGUCACAGCAGAAGGGUUCACGUCGCGGCCCCUGUCAGAUUCUGGUGAAUCUGCGAAUUCUGCUGU [C6U C18G] | 0.0786
12 | GGGGGGCACAGCAGAAGCGUUCACGUCGCUGCCCCUGUCAGAUUCUGGUGAAUCUGCGAAUUCUGCUGU [C6G G30U] | 0.045
13 | GGGGGUCACAGCAGAAGCGUUCACGUCGCGGCCCCUGUCAGAUUCUGGUGAAUCUGCGAAUUAUGCUGU [C6U C63A] | 0.806
14 | GGGGGGCACAGCAGAAGCGUUCACGUCGCGGCCCCUGGCAGAUUCUGGUGAAUCUGCGAAUUCUGCUGU [C6G U38G] | 0.0812
15 | GGGGGUCACAGCAGAAGCGUUCACGUUGCGGCCCCUGUCAGAUUCUGGUGAAUCUGCGAAUUCUGCUGU [C6U C27U] | 0.256
16 | GGGGGGCACAGCAGAAGCGUUCACGUCGCGGCCCCUGUCAGAUUCUGGUGAAUCUGCGAAUUCCGCUGU [C6G U64C] | 0.166
17 | GGGGGGCACAGCAGAAGCGUUCACGUCGCGGCCCCUGUCAGAUUCUGGUGAAUCUGCGAAUUCGGCUGU [C6G U64G] | 0.276
18 | GGGGGUCACAGCAGAAUCGUUCACGUCGCGGCCCCUGUCAGAUUCUGGUGAAUCUGCGAAUUCUGCUGU [C6U G17U] | 0.209
19 | GGGGGGCACAGCAGAAGCGUUCACGCCGCGGCCCCUGUCAGAUUCUGGUGAAUCUGCGAAUUCUGCUGU [C6G U26C] | 0.249
20 | GGGGGUCACAGCAGAAGCUUUCACGUCGCGGCCCCUGUCAGAUUCUGGUGAAUCUGCGAAUUCUGCUGU [C6U G19U] | 0.298

Row | Variant | self-cleavage
21 | GGGGGUCACAGCAGAAGCGUUCACGUCGCGGCCCCUGUCAGAUUCUGGUGAAUUUGCGAAUUCUGCUGU [C6U C54U] | 1.03
22 | GGGGGUUACAGCAGAAGCGUUCACGUCGCGGCCCCUGUCAGAUUCUGGUGAAUCUGCGAAUUCUGCUGU [C6U C7U] | 0.86
23 | GGGGGGCACAGCAGAAGCGUUCACGUCGCGCCCCCUGUCAGAUUCUGGUGAAUCUGCGAAUUCUGCUGU [C6G G31C] | 0.93
24 | GGGGGUCACAGCAGAAGCGUUCACGUCGUGGCCCCUGUCAGAUUCUGGUGAAUCUGCGAAUUCUGCUGU [C6U C29U] | 0.405
25 | GGGGGUCACAGCAGAAGCGUUCACGUCGAGGCCCCUGUCAGAUUCUGGUGAAUCUGCGAAUUCUGCUGU [C6U C29A] | 0.493
26 | GGGGGGCACAGCAGAAGCGUUCACGUCGCGGCCCCUGUCAGAUUCUGGUGAAUCGGCGAAUUCUGCUGU [C6G U55G] | 0.144
27 | GGGGGGCACAGCAGAAGCGUUCACGUCGCGGCCCCUGUCAGAUUCUGGUGAAUCCGCGAAUUCUGCUGU [C6G U55C] | 0.284
28 | GGGGGGCACAGCAGAAGCGUUCACGUCGCGGCCCCUGUCAGAUUCUGGUGAAUCAGCGAAUUCUGCUGU [C6G U55A] | 0.26
29 | GGGGGGCACAGCAGAAGCGUUCACGUCGCGGCCCCUGUCAGAUUCCGGUGAAUCUGCGAAUUCUGCUGU [C6G U46C] | 0.41
30 | GGGGGGCACAGCAGAAGCGUUCACGUCGCGGCCCCUGUCAGAUUCGGGUGAAUCUGCGAAUUCUGCUGU [C6G U46G] | 0.386
31 | GGGGGGCACAGCAGAAGCGUUCACGUCGCGGCCCCUGUCAGAUUCAGGUGAAUCUGCGAAUUCUGCUGU [C6G U46A] | 0.377
32 | GGGGGUCACAGCGGAAGCGUUCACGUCGCGGCCCCUGUCAGAUUCUGGUGAAUCUGCGAAUUCUGCUGU [C6U A13G] | 0.987
33 | GGGGGUCACAGCUGAAGCGUUCACGUCGCGGCCCCUGUCAGAUUCUGGUGAAUCUGCGAAUUCUGCUGU [C6U A13U] | 0.867
34 | GGGGGUCACAGCACAAGCGUUCACGUCGCGGCCCCUGUCAGAUUCUGGUGAAUCUGCGAAUUCUGCUGU [C6U G14C] | 0.458
35 | GGGGGUCACAGCAUAAGCGUUCACGUCGCGGCCCCUGUCAGAUUCUGGUGAAUCUGCGAAUUCUGCUGU [C6U G14U] | 0.616
36 | GGGGGUCACAGCAGAAGCGUUCACGGCGCGGCCCCUGUCAGAUUCUGGUGAAUCUGCGAAUUCUGCUGU [C6U U26G] | 0.91
37 | GGGGGUCACAGCAGAAGCGUUCACGUCGCGGCCCCUGUCAGAUUCUGUUGAAUCUGCGAAUUCUGCUGU [C6U G48U] | 1
38 | GGGGGGCACAGCAGAAGCGUUCACGUCGCGGCCCCUGUCAGAUUCUGGUGAAUCUGCGAAUUCUCCUGU [C6G G65C] | 0.158
39 | GGGGGUCACAACAGAAGCGUUCACGUCGCGGCCCCUGUCAGAUUCUGGUGAAUCUGCGAAUUCUGCUGU [C6U G11A] | 0.861
